The record followed here is the Human Domainome abundance scans (Beltran et al. 2025).

± gives the uncertainty stated by the source.

First the molecules themselves.
B1: Protein C-ets-1, residues 55 to 135; numbered along this chain, P14921 (parent)
chain: GFTKEQQRLGIPKDPRQWTETHVRDWVMWAVNEFSLKGVDFQKFCMNGAALCALGKDCFLELAPDFVGDILWEHLEILQKE

Variants of B1 are the subject of the data set. Nature of the data set: abundance fitness (aPCA) (normalised: wild type 0, dead -1); higher = more abundant; growth selection in yeast, the domain comes from the species named. Conditions: Homo sapiens.
As for GFTKEQQRLGIPKDPRQWTETHVRDWCMWAVNEFSLKGVDFQKFCMNGAALCALGKDCFLELAPDFVGDILWEHLEILQKE, the abundance fitness was -0.18 ± 0.044.

In the case of GFTKEQQRLGIPKDPRQWTETHVRDWEMWAVNEFSLKGVDFQKFCMNGAALCALGKDCFLELAPDFVGDILWEHLEILQKE, the abundance fitness is -1 ± 0.11. As to GFTKEQQRLGIPKDPRQWTETHVRDWMMWAVNEFSLKGVDFQKFCMNGAALCALGKDCFLELAPDFVGDILWEHLEILQKE, the abundance fitness was -0.045 ± 0.049.

GFTKEQQRLGIPKDPRQWTETHVRDWAMWAVNEFSLKGVDFQKFCMNGAALCALGKDCFLELAPDFVGDILWEHLEILQKE: the abundance fitness is -0.2 ± 0.031.

On to GFTKEQQRLGIPKDPRQWTETHVRDWKMWAVNEFSLKGVDFQKFCMNGAALCALGKDCFLELAPDFVGDILWEHLEILQKE, for which the abundance fitness is -0.983 ± 0.39. Take GFTKEQQRLGIPKDPRQWTETHVRDWIMWAVNEFSLKGVDFQKFCMNGAALCALGKDCFLELAPDFVGDILWEHLEILQKE: the abundance fitness is -0.003 ± 0.055. As to GFTKEQQRLGIPKDPRQWTETHVRDWDMWAVNEFSLKGVDFQKFCMNGAALCALGKDCFLELAPDFVGDILWEHLEILQKE, the abundance fitness is -0.887 ± 0.11.

Consider GFTKEQQRLGIPKDPRQWTETHVRDWYMWAVNEFSLKGVDFQKFCMNGAALCALGKDCFLELAPDFVGDILWEHLEILQKE, for which the abundance fitness is -0.992 ± 0.19. On to GFTKEQQRLGIPKDPRQWTETHVRDWFMWAVNEFSLKGVDFQKFCMNGAALCALGKDCFLELAPDFVGDILWEHLEILQKE, for which the abundance fitness was -0.214 ± 0.046. Regarding GFTKEQQRLGIPKDPRQWTETHVRDWGMWAVNEFSLKGVDFQKFCMNGAALCALGKDCFLELAPDFVGDILWEHLEILQKE, the abundance fitness was -0.739 ± 0.037.

On to GFTKEQQRLGIPKDPRQWTETHVRDWRMWAVNEFSLKGVDFQKFCMNGAALCALGKDCFLELAPDFVGDILWEHLEILQKE, for which the abundance fitness was -0.876 ± 0.042.

With GFTKEQQRLGIPKDPRQWTETHVRDWLMWAVNEFSLKGVDFQKFCMNGAALCALGKDCFLELAPDFVGDILWEHLEILQKE, the abundance fitness is -0.013 ± 0.03. With GFTKEQQRLGIPKDPRQWTETHVRDWNMWAVNEFSLKGVDFQKFCMNGAALCALGKDCFLELAPDFVGDILWEHLEILQKE, the abundance fitness was -0.796 ± 0.16.

As for GFTKEQQRLGIPKDPRQWTETHVRDWHMWAVNEFSLKGVDFQKFCMNGAALCALGKDCFLELAPDFVGDILWEHLEILQKE, the abundance fitness is -0.931 ± 0.19. For GFTKEQQRLGIPKDPRQWTETHVRDWSMWAVNEFSLKGVDFQKFCMNGAALCALGKDCFLELAPDFVGDILWEHLEILQKE, the abundance fitness was -0.841 ± 0.046. Take GFTKEQQRLGIPKDPRQWTETHVRDWPMWAVNEFSLKGVDFQKFCMNGAALCALGKDCFLELAPDFVGDILWEHLEILQKE: the abundance fitness is -0.86 ± 0.076. Turning to GFTKEQQRLGIPKDPRQWTETHVRDWWMWAVNEFSLKGVDFQKFCMNGAALCALGKDCFLELAPDFVGDILWEHLEILQKE, the abundance fitness was -0.625 ± 0.06. Take GFTKEQQRLGIPKDPRQWTETHVWDWVMWAVNEFSLKGVDFQKFCMNGAALCALGKDCFLELAPDFVGDILWEHLEILQKE: the abundance fitness was -0.3 ± 0.047. To GFTKEQQRLGIPKDPRQWTETHVSDWVMWAVNEFSLKGVDFQKFCMNGAALCALGKDCFLELAPDFVGDILWEHLEILQKE belongs -0.152 ± 0.035; to GFTKEQQRLGIPKDPRQWTETHVVDWVMWAVNEFSLKGVDFQKFCMNGAALCALGKDCFLELAPDFVGDILWEHLEILQKE, -0.059 ± 0.043. Consider GFTKEQQRLGIPKDPRQWTETHVQDWVMWAVNEFSLKGVDFQKFCMNGAALCALGKDCFLELAPDFVGDILWEHLEILQKE, for which the abundance fitness was -0.039 ± 0.038.

On to GFTKEQQRLGIPKDPRQWTETHVYDWVMWAVNEFSLKGVDFQKFCMNGAALCALGKDCFLELAPDFVGDILWEHLEILQKE, for which the abundance fitness is -0.152 ± 0.088. On to GFTKEQQRLGIPKDPRQWTETHVNDWVMWAVNEFSLKGVDFQKFCMNGAALCALGKDCFLELAPDFVGDILWEHLEILQKE, for which the abundance fitness is -0.062 ± 0.11. With GFTKEQQRLGIPKDPRQWTETHVPDWVMWAVNEFSLKGVDFQKFCMNGAALCALGKDCFLELAPDFVGDILWEHLEILQKE, the abundance fitness was -1.03 ± 0.13. Take GFTKEQQRLGIPKDPRQWTETHVTDWVMWAVNEFSLKGVDFQKFCMNGAALCALGKDCFLELAPDFVGDILWEHLEILQKE: the abundance fitness was -0.087 ± 0.052. Take GFTKEQQRLGIPKDPRQWTETHVRPWVMWAVNEFSLKGVDFQKFCMNGAALCALGKDCFLELAPDFVGDILWEHLEILQKE: the abundance fitness is -0.973 ± 0.08.

As to GFTKEQQRLGIPKDPRQWTETHVRCWVMWAVNEFSLKGVDFQKFCMNGAALCALGKDCFLELAPDFVGDILWEHLEILQKE, the abundance fitness is -0.01 ± 0.048.

For GFTKEQQRLGIPKDPRQWTETHVRIWVMWAVNEFSLKGVDFQKFCMNGAALCALGKDCFLELAPDFVGDILWEHLEILQKE, the abundance fitness is -0.033 ± 0.053. For the variant GFTKEQQRLGIPKDPRQWTETHVRTWVMWAVNEFSLKGVDFQKFCMNGAALCALGKDCFLELAPDFVGDILWEHLEILQKE, the abundance fitness was -0.038 ± 0.033.

Consider GFTKEQQRLGIPKDPRQWTETHVRYWVMWAVNEFSLKGVDFQKFCMNGAALCALGKDCFLELAPDFVGDILWEHLEILQKE, for which the abundance fitness is -0.027 ± 0.048. Take GFTKEQQRLGIPKDPRQWTETHVREWVMWAVNEFSLKGVDFQKFCMNGAALCALGKDCFLELAPDFVGDILWEHLEILQKE: the abundance fitness was 0.06 ± 0.039. To GFTKEQQRLGIPKDPRQWTETHVRKWVMWAVNEFSLKGVDFQKFCMNGAALCALGKDCFLELAPDFVGDILWEHLEILQKE belongs -0.005 ± 0.049; to GFTKEQQRLGIPKDPRQWTETHVRWWVMWAVNEFSLKGVDFQKFCMNGAALCALGKDCFLELAPDFVGDILWEHLEILQKE, -0.05 ± 0.045; to GFTKEQQRLGIPKDPRQWTETHVRSWVMWAVNEFSLKGVDFQKFCMNGAALCALGKDCFLELAPDFVGDILWEHLEILQKE, -0.008 ± 0.028.
